Read-outs that look alike come from different tables or passages of the source.
Tests used:
[1] = target: T1, native/full length GTP cyclohydrolase 1 (F‐GCH1), His6-tagged (human, UniProt P30793 1-250); experiment: SPR
T1 sequence (looked up): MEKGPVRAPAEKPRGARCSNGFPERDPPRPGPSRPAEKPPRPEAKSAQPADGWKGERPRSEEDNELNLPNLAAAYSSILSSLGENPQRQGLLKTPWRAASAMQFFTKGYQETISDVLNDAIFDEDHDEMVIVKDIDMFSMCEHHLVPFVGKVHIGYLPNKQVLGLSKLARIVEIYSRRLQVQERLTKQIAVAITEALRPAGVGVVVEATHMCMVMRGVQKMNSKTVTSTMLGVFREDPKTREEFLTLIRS

[2] = target: T1, native/full length GTP cyclohydrolase 1 …; experiment: SPR; remark: listed apart in the source

B1: GCH1 feedback regulatory protein (GFRP), His6 tag cleaved (natural protein)
chain: not shown
Kd [1]: 1 nM
Kd [2]: 8 nM

From publication PMC4543619 (British Journal of Pharmacology, 2015)
